Values quoted from earlier work as cited in article PMC4543363.
pKd: −log10 of the molar value.

Tests used:
NF-κB p50 (Homo sapiens) = NF-κB p50 (Homo sapiens) (UniProt P19838)
[1] = target: NF-κB dimer (Homo sapiens) (UniProt P19838)

pKd (NF-κB p50 (Homo sapiens))	pKd [1]	Substance
7.00	–	NF-κB p65 (from UniProt Q04206)
–	> 10.00	IκBα (from UniProt P25963)
